Experimental findings from publication PMC10755785 (The Journal of Biological Chemistry, 2023) are described below.

In assay [1] the target is σ^s (RpoS), His-tagged (Escherichia coli) (UniProt P13445). As to the kind of experiment: SEC.
The target is the same in assay [2]. As to the kind of experiment: pull-down.
The next assay addresses σ^s (RpoS), His-tagged (Escherichia coli, UniProt P13445 1-330). As to the kind of experiment: pull-down.

Sequence of σ^s (RpoS), His-tagged (Escherichia coli) (P13445 whole entry): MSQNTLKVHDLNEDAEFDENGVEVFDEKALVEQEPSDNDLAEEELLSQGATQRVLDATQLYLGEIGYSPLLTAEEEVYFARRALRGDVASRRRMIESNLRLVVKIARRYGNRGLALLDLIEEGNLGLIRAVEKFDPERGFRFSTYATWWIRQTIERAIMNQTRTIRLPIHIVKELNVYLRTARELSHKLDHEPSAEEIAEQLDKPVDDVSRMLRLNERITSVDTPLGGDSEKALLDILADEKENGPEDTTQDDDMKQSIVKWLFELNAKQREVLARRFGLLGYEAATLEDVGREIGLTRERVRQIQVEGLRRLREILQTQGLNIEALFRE
Sequence of σ^s (RpoS), His-tagged (P13445 whole entry): as above

A word on the stoichiometry N: it is a count of units in the complex or per binding partner. As for “RssB∼P (RssB phosphorylated with acetyl phosphate) (from UniProt P0AEV1 1-337) (natural protein)”, the stoichiometry N in assay [1] is 1 σ^s:RssB.
Consider “RssB (wild type, full length) (from UniProt P0AEV1 1-337) (natural protein)”, for which the fold increase in pull-down efficiency with beryllofluoride against without in assay [2] was found to be 5 fold.

B1: RssB^F129A;S131A (natural protein, Escherichia coli)
chain: MTQPLVGKQILIVEDEQVFRSLLDSWFSSLGATTVLAADGVDALELLGGFTPDLMICDIAMPRMNGLKLLEHIRNRGDQTPVLVISATENMADIAKALRLGVEDVLLKPVKDLNRLREMVFACLYPSMANARVEEEERLFRDWDAMVDNPAAAAKLLQELQPPVQQVISHCRVNYRQLVAADKPGLVLDIAALSENDLAFYCLDVTRAGHNGVLAALLLRALFNGLLQEQLAHQNQRLPELGALLKQVNHLLRQANLPGQFPLLVGYYHRELKNLILVSAGLNATLNTGEHQVQISNGVPLGTLGNAYLNQLSQRCDAWQCQIWGTGGRLRLMLSAE
With B1, in the assay with σ^s (RpoS), His-tagged, the “percent of WT binding” value was ~50 % of WT.
